The values below come from patent US20070243181.

myc-IRAK1c, sequence (chain, as listed by the source): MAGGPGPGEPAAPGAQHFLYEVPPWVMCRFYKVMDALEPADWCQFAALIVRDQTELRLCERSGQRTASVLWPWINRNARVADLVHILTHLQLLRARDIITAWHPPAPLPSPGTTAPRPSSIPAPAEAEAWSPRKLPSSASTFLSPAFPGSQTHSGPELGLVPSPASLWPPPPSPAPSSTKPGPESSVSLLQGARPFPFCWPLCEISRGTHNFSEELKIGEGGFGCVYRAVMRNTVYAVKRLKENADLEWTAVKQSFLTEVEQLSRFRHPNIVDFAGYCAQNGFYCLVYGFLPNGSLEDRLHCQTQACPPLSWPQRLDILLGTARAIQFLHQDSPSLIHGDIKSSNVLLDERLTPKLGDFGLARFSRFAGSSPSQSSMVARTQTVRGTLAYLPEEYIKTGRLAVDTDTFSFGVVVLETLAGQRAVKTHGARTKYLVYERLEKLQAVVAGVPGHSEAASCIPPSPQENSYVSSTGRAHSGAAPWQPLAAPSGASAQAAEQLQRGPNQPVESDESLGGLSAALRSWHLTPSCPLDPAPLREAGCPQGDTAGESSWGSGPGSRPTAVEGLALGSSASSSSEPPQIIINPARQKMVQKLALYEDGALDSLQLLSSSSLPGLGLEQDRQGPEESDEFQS
myc-IRAK1c-KD, sequence (chain, as listed by the source): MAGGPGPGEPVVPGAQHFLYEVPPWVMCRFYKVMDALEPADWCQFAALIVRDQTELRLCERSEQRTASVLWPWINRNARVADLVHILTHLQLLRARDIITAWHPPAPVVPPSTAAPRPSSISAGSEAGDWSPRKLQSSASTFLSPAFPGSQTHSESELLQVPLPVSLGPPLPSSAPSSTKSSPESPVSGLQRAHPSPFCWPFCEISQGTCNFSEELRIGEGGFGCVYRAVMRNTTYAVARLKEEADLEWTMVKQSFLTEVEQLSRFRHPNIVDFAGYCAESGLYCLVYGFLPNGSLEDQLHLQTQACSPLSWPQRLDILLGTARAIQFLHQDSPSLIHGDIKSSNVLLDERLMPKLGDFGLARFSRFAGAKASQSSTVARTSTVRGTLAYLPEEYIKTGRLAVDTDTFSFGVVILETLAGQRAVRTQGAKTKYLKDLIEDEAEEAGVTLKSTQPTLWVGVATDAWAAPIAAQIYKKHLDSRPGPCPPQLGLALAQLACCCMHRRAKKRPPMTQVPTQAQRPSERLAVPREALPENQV

B1: recombinant IRAK4 (protein)
chain: MNKPITPSTYVRCLNVGLIRKLSDFIDPQEGWKKLAVAIKKPSGDDRYNQFHIRRFEALLQTGKSPTSELLFDWGTTNCTVGDLVDLLIQNEFFAPASLLLPDAVPKTANTLPSKEAITVQQKQMPFCDKDRTLMTPVQNLEQSYMPPDSSSPENKSLEVSDTRFHSFSFYELKNVTNNFDERPISVGGNKMGEGGFGVVYKGYVNNTTVAVKKLAAMVDITTEELKQQFDQEIKVMAKCQHENLVELLGFSSDGDDLCLVYVYMPNGSLLDRLSCLDGTPPLSWHMRCKIAQGAANGINFLHENHHIHRDIKSANILLDEAFTAKISDFGLARASEKFAQTVMTSRIVGTTAYMAPEALRGEITPKSDIYSFGVVLLEIITGLPAVDEHREPQLLLDIKEEIEDEEKTIEDYIDKKMNDADSTSVEAMYSVASQCLHEKKNKRPDIKKVQQLLQEMTAS
B1: the “in vitro kinase assay on anti-myc immunoprecipitates, autoradiography” value in the series with myc-IRAK1c and in the series with myc-IRAK1c-KD was “Neither IPAK1c nor IPAK1c-KD showed any phosphorylation in the presence of IRAK4” throughout.
